Measured values from US8012929B2, “Peptides directed for diagnosis and treatment of amyloid-associated diseases” (Tel Aviv University Future Technology Development L.P., priority 2002, dated 2011).
One block for each substance: values may come before it. Square brackets hold non-standard residues; d marks the D form. Ends that are not written are not given here. Aib = CC(C)(N)C(=O)O

Legend:
hIAPP1-37 = biological target: T1, hIAPP1-37 (Homo sapiens, UniProt P10997); assay: Thioflavin T fluorescence assay of hIAPP fibrillization (sodium acetate buffer); assay type: biochemical; settings: 4 μM hIAPP1-37, 40 μM inhibitor, 10 mM sodium acetate pH 6.5
T1 construct: purchased CalBiochem (La Jolla Calif., USA)
T1 sequence (P10997 34-70 limits assumed): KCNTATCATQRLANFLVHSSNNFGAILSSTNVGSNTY
Experimental: Thioflavin T fluorescence assay—hIAPP fibrillization was monitored by Thioflavin T dye binding assay. hIAPP1-37 stock solution was diluted to a final concentration of 4 μM in 10 mM sodium acetate buffer (pH 6.5) with or without inhibitors (40 μM), and a final concentration of HFIP of 1% (vol). Immediately after dilution, sample was centrifuged for 20 minutes in 20,000×g at 4° C. and the supernatant fraction was used for fluorescence measurements. In every measurement ThT was added to a 1 ml sample at a final concentration of 3 μM and measurements were effected by using Perkin-Elmer (excitation 450 nm, 2.5 nm slit; emission 480 nm 10 nm slit). Background was subtracted from all samples.

MBP-IAPP1-37 = biological target: T2, MBP-IAPP1-37 (Homo sapiens, UniProt P10997); assay: Binding of MBP-IAPP to membrane-spotted peptide arrays; settings: membrane-bound hIAPP decamers, 10 μg/ml MBP-IAPP1-37, densitometry, semiquantitative
T2 construct: incubated in the presence of 10 μg/ml MBP-IAPP1-37 at 4° C. for 12 h; made in house; host or cells: E. coli BL21(DE3)
T2 sequence (P10997 34-70 limits assumed): T1 sequence (P10997 34-70 limits assumed)
From the text: IAPP peptide array construction—Decamers corresponding to consecutive overlapping sequences of hIAPP1-37 SEQ ID NOs. 61-88) were synthesizes on a cellulose membrane matrix using the SPOT technique (Jerini AG, Berlin, Germany). The peptides were covalently bound to a Whatman 50 cellulose support (Whatman, Maidstone, England) via the C-terminal amino-acids. N-terminal acetylation was used for peptide scanning because of higher stability to peptide degradation, and better representation of the native recognition motif.
Thereafter, cellulose membrane was incubated in the presence of 10 μg/ml MBP-IAPP1-37 at 4° C. for 12 h in the same blocking buffer. The cellulose membrane was then washed repeatedly with 0.05% Tween 20 in TBS. […] HRP-conjugated goat anti mouse antibodies (Jackson Laboratories, USA) were used as a secondary antibody. Immunoblots were developed using the Renaissance western blot Chemiluminescence Reagent (NEN, USA) according to Manufacturer's instructions and signal was quantified using densitometry. Regeneration of the cellulose membrane for reuse was carried out by sequential washing with Regeneration buffer I including 62.5 mM Tris, 2% SDS, 100 Mm 2-mercaptoethanol, pH 6.7, and Regeneration buffer II including 8 M urea, 1% SDS, 0.1% 2-mercaptoethanol. Efficiency of the washing steps was monitored by contacting the membrane with the chemiluminescence reagent, as described.
To determine the specific role of the phenylalanine residue in IAPP-self assembly, a membrane-based binding assay was preformed in order to systematically explore the molecular determinants that facilitate the ability of the full-length hIAPP to recognize the “basic amyloidogenic unit”. To this end, the ability of MBP-IAPP (see Example 6) to interact with an array of peptides in which the phenylalanine position was systematically altered (SEQ ID NOs. 91-110), was addressed.

[1] = biological target: T3, full-length IAPP polypeptide (Homo sapiens, UniProt P10997); assay: ThT fluorescence assay of IAPP fibril formation with inhibitory peptides (Tris buffer); assay type: biochemical; settings: for inhibition of IAPP aggregation (ThT endpoint): 4 μM IAPP, 40 μM inhibitory peptide, 142 hours of incubation
T3 construct: purchased CalBiochem (La Jolla Calif., USA)
T3 sequence (P10997 34-70 limits assumed): T1 sequence (P10997 34-70 limits assumed)
Experimental: The ability of amyloidogenic peptides of IAPP, identified according to the teachings of the present invention to inhibit amyloid formation by the full-length polypeptide was tested by the addition of beta-breaker proline residues to the recognition sequence as set forth in the peptide sequence NFLVHPP (SEQ ID NO: 45). The degree of amyloid fibrils formation with and without the inhibitor was assessed using Thioflavin T (ThT) as molecular indicator. The degree of fluorescence of the ThT dye is directly correlated with the amount of amyloid fibrils in the solution [LeVine H 3rd. (1993) Protein Sci. 2:404-410. IAPP solutions ([…] hIAPPin 10 mM Tris buffer pH 7.2), were incubated in the presence or absence of 40[…] of the modified peptide (i.e., NFLVHPP) at room temperature. Fibril formation was determined by a ten fold dilution of the solutions into a solution that contained 3[…] thioflavin T (ThT) in 50 mM sodium phosphate pH 6.0 and determination of fluorescence at 480 nm with excitation at 450 nm using a LS50B spectroflurimeter (Perkin Elmar, Wellesley, Mass.). As a control 10 mM Tris buffer pH 7.2 were diluted into the ThT solution and fluorescence was determined as described.
The degree of amyloid fibril formation with and without the Aib inhibitor was assessed using thioflavin T (ThT) as molecular indicator. The degree of fluorescence of the ThT dye is directly correlated with the amount of amyloid fibrils in the solution [LeVine H 3rd. (1993) Protein Sci. 2:404-410].
[…]IAPP solutions (4 μM peptide in 10 mM Tris buffer pH 7.2), were incubated with or without 40 μM of the various peptide solutions at room temperature. Fibril formation was assessed by a ten fold diluation of the solutions into a solution which contained 3 μM thioflavin T (ThT) in 50 mM sodium phosphate pH 6.0 and determination of fluorescence at 480 nm with excitation at 450 nm using a Perkin Elmar LS50B spectroflurimeter. As a control a 10 mM Tris buffer pH 7.2 was diluted into the ThT solution and fluorescence was determined as described. […]

Substance: Gln-Lys-Leu-Val-Phe-Phe [EG05, reference compound]
inhibition of IAPP fibrillization (ThT fluorescence at plateau) (hIAPP1-37): effective inhibition of IAPP fibrillization

Substance: D-Pro-Aib [EG28]
inhibition of IAPP fibrillization (ThT fluorescence at plateau) (hIAPP1-37): inhibition potential

Substance: Aib-Phe-Phe ([Aib]-Phe-Phe) [EG12]
inhibition of IAPP aggregation (ThT endpoint) [1]: best inhibitor

Substance: D-Tyr-Aib [EG16]
inhibition of IAPP aggregation (ThT endpoint) [1]: significant inhibitory effect on IAPP aggregation
inhibition of IAPP fibrillization (ThT fluorescence at plateau) (hIAPP1-37): effective inhibition

Results, then the substance that gave them:

inhibition of IAPP fibrillization (ThT fluorescence at plateau) (hIAPP1-37): inhibition potential
Substance: D-Phe-D-Pro [EG29]

binding to MBP-hIAPP1-37 (MBP-IAPP1-37): no binding
Substance: hIAPP3-12: membrane-spotted decamer of hIAPP residues 3-12 (NTATCATQRL)

binding to MBP-hIAPP1-37 (MBP-IAPP1-37): third binding spot
Substance: hIAPP2-11: membrane-spotted decamer of hIAPP residues 2-11 (CNTATCATQR)

ThT fluorescence of IAPP in the presence of the inhibitory peptide ([1]; hIAPP in 10 mM Tris pH 7.2 with or without modified peptide, room temperature): significant increase in fluorescence
Substance: NFLVHPP

binding to MBP-hIAPP1-37 (MBP-IAPP1-37): no binding
Substance: hIAPP1-10: membrane-spotted decamer of hIAPP residues 1-10 (KCNTATCATQ)
